Experimental data: publication PMC12718013

Molecular target: purified human vitronectin (Invitrogen) (UniProt P04004)
Test: ELISA
Conditions: 20 nM Vn, read off a plot

UniProt P04004, sequence (P04004 whole entry, looked up): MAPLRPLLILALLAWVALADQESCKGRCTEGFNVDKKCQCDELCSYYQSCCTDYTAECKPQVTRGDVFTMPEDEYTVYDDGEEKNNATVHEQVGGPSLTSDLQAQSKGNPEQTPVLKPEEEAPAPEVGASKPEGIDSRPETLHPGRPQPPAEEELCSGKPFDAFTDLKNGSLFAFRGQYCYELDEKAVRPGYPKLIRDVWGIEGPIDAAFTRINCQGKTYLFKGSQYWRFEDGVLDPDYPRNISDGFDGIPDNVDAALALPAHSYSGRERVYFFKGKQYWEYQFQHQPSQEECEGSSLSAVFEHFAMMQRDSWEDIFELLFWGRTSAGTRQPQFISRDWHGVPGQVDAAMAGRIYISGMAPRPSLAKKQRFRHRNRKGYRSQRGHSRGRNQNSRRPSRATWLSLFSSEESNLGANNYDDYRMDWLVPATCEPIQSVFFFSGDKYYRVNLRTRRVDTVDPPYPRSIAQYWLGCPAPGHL

## synthetic peptide of loop 2 of P5 from NTHi 3655 L5A; V8A; S12A
parent: est. 0.28
  response (absorbance at 450 nm): 0.13

## synthetic peptide of loop 2 of P5 from NTHi KR271 I5A
parent: est. 0.12
  response (absorbance at 450 nm): 0.1

## synthetic peptide of loop 2 of P5 from NTHi KR317 L5A; V8A; Q10A; T11A; R12A
parent: est. 0.23
  response (absorbance at 450 nm): 0.095

## synthetic peptide of loop 2 of P5 from NTHi P652 V3A; F5A; L7A
parent: est. 0.97
  response (absorbance at 450 nm): 0.45
